Biological target: T1, GST-NHERF1-PDZ2 (PDZ2 domain of Na+/H+ exchanger regulatory factor 1 fused to GST)
T1 sequence (O14745 whole entry, species assumed, looked up): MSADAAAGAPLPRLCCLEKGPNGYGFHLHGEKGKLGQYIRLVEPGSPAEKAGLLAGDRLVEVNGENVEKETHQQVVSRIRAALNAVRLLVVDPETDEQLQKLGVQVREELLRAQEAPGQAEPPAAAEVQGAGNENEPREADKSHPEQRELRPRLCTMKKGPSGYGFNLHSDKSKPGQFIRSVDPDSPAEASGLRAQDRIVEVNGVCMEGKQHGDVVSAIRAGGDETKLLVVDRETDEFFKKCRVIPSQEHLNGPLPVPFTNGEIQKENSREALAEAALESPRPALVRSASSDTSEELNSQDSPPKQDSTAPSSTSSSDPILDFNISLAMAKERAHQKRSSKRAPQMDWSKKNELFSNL
Test: AlphaScreen or HTRF

Substance	IC50 [nM]
Flag-WT CFTR (cystic fibrosis transmembrane-conductance regulator, wild type) (from UniProt P13569 1-1480) (natural protein)	89.3
Flag-ΔF508 CFTR (CFTR with deletion of phenylalanine at residue 508) (from UniProt P13569 1-1480) (natural protein)	442

— article PMC4081048
